We go through 3 molecules from patent US20150044246A1 (IMMATICS BIOTECHNOLOGIES, published 2015).

The target in this test is T1, HLA-A*0201 (recombinant, refolded with peptide for tetramer production) (human).
T1 construct: Monomers were biotinylated; also called HLA-A2
Description: reconstitution of HLA-A*0201 tetramers with peptide.

B1: YVDPVITSI derived from met proto-oncogene (peptide)
peptide: YVDPVITSI
notes: MHC class I ligand eluted from renal cell carcinoma tissue; also called met-proto-oncogene peptide
B1: the binding result is listed as “binds”.

B2: SVASTITGV from adipophilin (peptide)
peptide: SVASTITGV
notes: MHC class I ligand eluted from renal cell carcinoma tissue; also called adipophilin peptide; ADFP peptide
In the case of B2, the binding result is “binds”.

B3: ALLNIKVKL derived from keratin 18 (peptide)
peptide: ALLNIKVKL
notes: MHC class I ligand eluted from renal cell carcinoma tissue and identified by mass spectrometry; also called keratin 18 peptide; keratin 18-peptide
For B3, the binding result is given as “binds”.
